# Assay results reported in publication PMC3674885.
# Like-named read-outs stand apart in the source and are kept apart here.
# Key:
# [1] = target: TrkA receptor (rat) on MG139 cells (rat) (UniProt P35739)
# [2] = target: both classes of receptors (TrkA and p75) on PC12 cells (rat (endogenous in PC12)); experiment: radioligand binding
# [3] = target: TrkA receptor (rat) on MG139 cells (rat) (UniProt P35739); experiment: radioligand binding
# [4] = target: both classes of receptors (TrkA and p75) on PC12 cells (rat (endogenous in PC12)); experiment: radioligand binding; remark: listed apart in the source
# [5] = target: TrkA receptor (rat) on MG139 cells (rat) (UniProt P35739); experiment: radioligand binding; remark: listed apart in the source
# [6] = target: high-affinity site on PC12 cells (cold-temperature, cold-chase stable binding) (rat (endogenous in PC12)); experiment: radioligand binding
# [7] = target: 7-84-103 NGF mutein (F7A/H84A/R103A); experiment: native gel or EMSA + other: high-performance ion-exchange chromatography; conditions: native gel or EMSA + other: high-performance ion-exchange chromatography (HPIEC)
# Sequence of UniProt P35739 (P35739 33-799): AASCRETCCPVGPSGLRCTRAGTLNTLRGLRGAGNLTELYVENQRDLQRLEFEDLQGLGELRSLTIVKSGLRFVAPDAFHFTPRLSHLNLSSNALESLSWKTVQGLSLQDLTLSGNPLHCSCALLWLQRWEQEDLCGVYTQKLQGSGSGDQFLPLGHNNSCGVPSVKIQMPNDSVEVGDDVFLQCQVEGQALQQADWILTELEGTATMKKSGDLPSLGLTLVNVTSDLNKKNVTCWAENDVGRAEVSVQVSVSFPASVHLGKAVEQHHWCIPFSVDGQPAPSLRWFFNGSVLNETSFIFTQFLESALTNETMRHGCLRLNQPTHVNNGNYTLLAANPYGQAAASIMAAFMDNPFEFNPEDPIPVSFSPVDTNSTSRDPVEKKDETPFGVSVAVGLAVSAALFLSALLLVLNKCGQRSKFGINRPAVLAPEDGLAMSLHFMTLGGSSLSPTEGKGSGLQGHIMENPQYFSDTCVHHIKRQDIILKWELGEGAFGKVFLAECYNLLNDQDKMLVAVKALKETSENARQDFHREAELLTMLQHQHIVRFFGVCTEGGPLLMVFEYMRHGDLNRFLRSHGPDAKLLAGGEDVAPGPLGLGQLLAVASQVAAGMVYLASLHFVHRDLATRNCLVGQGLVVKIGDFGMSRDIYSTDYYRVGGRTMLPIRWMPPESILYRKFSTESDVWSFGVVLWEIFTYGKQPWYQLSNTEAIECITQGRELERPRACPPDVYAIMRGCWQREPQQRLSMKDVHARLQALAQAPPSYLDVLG
Molecule,"XTT assay of survival of MG139 cells (TrkA+/p75-), 72 hr, EC50 [1]","trypan blue survival assay of PC12 cells (TrkA+/p75+), 72 hr, EC50 [1]",IC50 [2],IC50 [3],IC50 [4],IC50 [5],"neurite outgrowth of PC12 cells, 48 hr, EC50 [1]",percent of ^125I-NGF binding left at the plateau of the competition curve [4],percent of the cold-chase stable ^125I-NGF binding competed away [6],percent of the protein as heterodimer Htm1 in the 1:1 mixture (Mix1a) [7],percent of the protein as heterodimer Htm1 in the 1:2 mixture (Mix1) [7]
7-84-103 NGF mutein (F7A/H84A/R103A) (ligand),17 nM,1.26 nM,1.9 nM,11.5 nM,2.45 nM,15 nM,,,,,
wild-type nerve growth factor (unlabelled) (from UniProt P01139 122-241) (ligand),,0.28 nM,,0.03 nM,0.25 nM,,,,,,
Heteromutein 1 (heterodimer of the Δ9/13 and 7-84-103 NGF muteins) (from UniProt P01139 122-241) (complex),19 nM,0.47 nM,0.53 nM,0.67 nM,0.59 nM,0.64 nM,1.8 nM,,,,
Δ9/13 NGF mutein (from UniProt P01139 122-241) (ligand),,,0.51 nM,,0.46 nM,,,20%,27%,,
Δ9/13 NGF mutein (protein) SSTHPVFHMGEFSVCDSVSVWVGDKTTATDIKGKEVTVLAEVNINNSVFRQYFFETKCRASNPVESGCRGIDSKHWNSYCTTTHTFVKALTTDEKQAAWRFIRIDTACVCVLSRKATRRG,,,,,,,,,,40% in Mix1a,37.5% in Mix1
